Reference: patent US20120231013A1
“And” between values parts separate entries of the source, which are not always exact repeats. Identical values can stand only once.

Tests used:
[1] = target: recombinant TIMP-3 (human or mouse; Table 2 does not say which); test: AlphaScreen, biotinylated TIMP-3, Assay 1
[2] = target: recombinant TIMP-3 (human or mouse; Table 2 does not say which); test: AlphaScreen, biotinylated TIMP-3, Assay 2
[3] = target: recombinant TIMP-3 (human or mouse; Table 2 does not say which); test: binding ELISA, Assay 1
[4] = target: recombinant TIMP-3 (human or mouse; Table 2 does not say which); test: binding ELISA, Assay 2
MMP-13 = MMP-13 (UniProt P45452); test: cell-based or functional assay
[5] = target: recombinant TIMP-3 (human or mouse; Table 2 does not say which); test: binding ELISA, Assay 3
[6] = target: recombinant human TIMP-3 (human) (UniProt P35625); test: cell-based or functional assay
recombinant human TIMP-3 (human), sequence (P35625 24-211 limits assumed): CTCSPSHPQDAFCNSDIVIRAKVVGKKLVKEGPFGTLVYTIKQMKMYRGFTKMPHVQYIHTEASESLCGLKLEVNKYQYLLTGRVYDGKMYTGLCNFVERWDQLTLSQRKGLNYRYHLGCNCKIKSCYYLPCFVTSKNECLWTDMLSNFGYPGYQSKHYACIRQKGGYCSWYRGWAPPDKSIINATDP

[7] = target: recombinant human TIMP-3 (human) (UniProt P35625); test: direct ELISA, coated huTIMP-3
[8] = target: recombinant human TIMP-3 (human) (UniProt P35625); test: indirect ELISA, huTIMP-3 captured by anti-TIMP-3 clone 277128
[9] = target: recombinant mouse TIMP-3 (mouse) (UniProt P39876); test: direct ELISA, coated muTIMP-3
recombinant mouse TIMP-3 (mouse), sequence (P39876 24-211 limits assumed): as the sequence (P35625 24-211 limits assumed) above, with T51S, D87E, Q103H, I183S counted along it

LRP-1 Cluster II (C II) (peptide), sequence (chain): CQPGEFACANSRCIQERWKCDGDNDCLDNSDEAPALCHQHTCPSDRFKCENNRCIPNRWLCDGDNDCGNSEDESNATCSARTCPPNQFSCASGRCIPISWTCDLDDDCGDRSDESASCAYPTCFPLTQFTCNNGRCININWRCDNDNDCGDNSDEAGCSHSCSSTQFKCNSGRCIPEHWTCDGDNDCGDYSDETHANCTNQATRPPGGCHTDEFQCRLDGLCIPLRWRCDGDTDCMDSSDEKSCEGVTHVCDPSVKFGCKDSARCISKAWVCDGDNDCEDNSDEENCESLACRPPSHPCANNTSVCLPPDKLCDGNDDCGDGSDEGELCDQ
recombinant TIMP-3 (human or mouse; Table 2 does not say which), sequence (P35625 24-211): as the sequence (P35625 24-211 limits assumed) above
LRP-1 peptide LA13-15, sequence (chain): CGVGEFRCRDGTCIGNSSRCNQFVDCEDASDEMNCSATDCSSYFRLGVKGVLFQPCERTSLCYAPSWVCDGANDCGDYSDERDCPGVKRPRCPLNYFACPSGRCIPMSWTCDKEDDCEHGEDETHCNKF

LRP-1 peptide LA3 showed a total signal (cps) [1] of 2200 cps and a total signal (cps) [2] of 2000 cps.
With LRP-1 peptide LA21-23 the total signal (cps) [1] was 3000 cps and the EC50 [3] was 243 nM.
LRP-1 peptide LA5 showed a total signal (cps) [1] of 2200 cps, an EC50 [4] of 1080 nM and a total signal (cps) [2] of 2000 cps.
For LRP-1 peptide LA19, the total signal (cps) [1] was 2200 cps.
LRP-1 peptide LA13-15 was tested, and the total signal (cps) [1] was 1200 cps.
Substance LRP-1 peptide LA21-31 has a total signal (cps) [1] of 30000 cps, a Direct Inhibition of MMP13 (% decrease), 1000 nM (MMP-13) of 29% and an EC50 [3] of 92 nM.
LRP-1 Cluster II (C II) (peptide) was tested, and the EC50 [5] was 32.5 nM, the EC50 [3] was 45.5 nM and the total signal (cps) [2] was 100000 cps.
With LRP-1 peptide LA23 the total signal (cps) [1] was 2200 cps.
LRP-1 peptide LA10 gave a Direct Inhibition of MMP13 (% decrease), 1000 nM (MMP-13) of 49% and a total signal (cps) [2] of 3000 cps.
For LRP-1 peptide LA11-13, the total signal (cps) [1] was 1200 cps, the Direct Inhibition of MMP13 (% decrease), 1000 nM (MMP-13) was -2% and the EC50 [3] was 5000 nM.
In the case of LRP-1 peptide LA27, the total signal (cps) [1] is reported as 2200 cps.
In the case of LRP-1 peptide LA16, the total signal (cps) [1] is reported as 2200 cps.
LRP-1 peptide LA29-31 showed a total signal (cps) [1] of 1200 cps, a % of the inhibitory activity of TIMP-3 + peptide compared to TIMP-3 alone, 16 nM [6] of 96% and a % of the inhibitory activity of TIMP-3 + peptide compared to TIMP-3 alone, 80 nM [6] of 99%. The % of the inhibitory activity of TIMP-3 + peptide compared to TIMP-3 alone, 400 nM [6] was 97%, the % of the inhibitory activity of TIMP-3 + peptide compared to TIMP-3 alone, 2000 nM [6] was 96% and the Direct Inhibition of MMP13 (% decrease), 1000 nM (MMP-13) was 5%. The EC50 [3] was 1000 nM and 300 nM.
Work on LRP-1 peptide LA18-20 yielded a total signal (cps) [1] of 3000 cps and an EC50 [3] of 300 nM.
LRP-1 peptide LA9 was tested, and the EC50 [5] was 1500 nM, the % of the inhibitory activity of TIMP-3 + peptide compared to TIMP-3 alone, 16 nM [6] was 104% and the % of the inhibitory activity of TIMP-3 + peptide compared to TIMP-3 alone, 80 nM [6] was 104%. It also gave a % of the inhibitory activity of TIMP-3 + peptide compared to TIMP-3 alone, 400 nM [6] of 105%, a % of the inhibitory activity of TIMP-3 + peptide compared to TIMP-3 alone, 2000 nM [6] of 107% and a Direct Inhibition of MMP13 (% decrease), 1000 nM (MMP-13) of 41%. For the same substance, the total signal (cps) [2] was 2000 cps.
Substance LRP-1 peptide LA18 has a total signal (cps) [1] of 2200 cps.
In the case of LRP-1 peptide LA8, the EC50 [7] is reported as 292 nM, the EC50 [8] is reported as 198 nM and the EC50 [9] is reported as 255 nM. It also gave an EC50 [5] of 396 nM, a % of the inhibitory activity of TIMP-3 + peptide compared to TIMP-3 alone, 16 nM [6] of 101% and a % of the inhibitory activity of TIMP-3 + peptide compared to TIMP-3 alone, 80 nM [6] of 71%. For the same substance, the % of the inhibitory activity of TIMP-3 + peptide compared to TIMP-3 alone, 400 nM [6] was 74%, the % of the inhibitory activity of TIMP-3 + peptide compared to TIMP-3 alone, 2000 nM [6] was 107% and the Direct Inhibition of MMP13 (% decrease), 1000 nM (MMP-13) was 49%. It also gave a total signal (cps) [2] of 2000 cps.
Work on LRP-1 peptide LA9-10 yielded an EC50 [5] of 3000 nM, a % of the inhibitory activity of TIMP-3 + peptide compared to TIMP-3 alone, 16 nM [6] of 105% and a % of the inhibitory activity of TIMP-3 + peptide compared to TIMP-3 alone, 80 nM [6] of 107%. For the same substance, the % of the inhibitory activity of TIMP-3 + peptide compared to TIMP-3 alone, 400 nM [6] was 105%, the % of the inhibitory activity of TIMP-3 + peptide compared to TIMP-3 alone, 2000 nM [6] was 107% and the Direct Inhibition of MMP13 (% decrease), 1000 nM (MMP-13) was 34%. It also gave a total signal (cps) [2] of 2000 cps.
Work on LRP-1 peptide LA8-9 yielded an EC50 [7] of 181 nM, an EC50 [8] of 113 nM and an EC50 [9] of 173 nM. The EC50 [5] was 249 nM, the % of the inhibitory activity of TIMP-3 + peptide compared to TIMP-3 alone, 16 nM [6] was 95% and the % of the inhibitory activity of TIMP-3 + peptide compared to TIMP-3 alone, 80 nM [6] was 91%. For the same substance, the % of the inhibitory activity of TIMP-3 + peptide compared to TIMP-3 alone, 400 nM [6] was 91%, the % of the inhibitory activity of TIMP-3 + peptide compared to TIMP-3 alone, 2000 nM [6] was 97% and the Direct Inhibition of MMP13 (% decrease), 1000 nM (MMP-13) was 23%. For the same substance, the total signal (cps) [2] was 6000 cps.
Substance LRP-1 peptide LA26-28 has a total signal (cps) [1] of 6500 cps, an EC50 [3] of 268 nM and a total signal (cps) [2] of 9000 cps.
With LRP-1 peptide LA4-5 the total signal (cps) [1] was 2200 cps, the EC50 [4] was 2000 nM and the total signal (cps) [2] was 2000 cps.
